Target: full-length FUS wild type (UniProt P35637 1-526)
Experiment: steady-state fluorescence (2-AP); 150 mM KCl, 5-fold excess BSA; Fluorescence: 10 mM cacodylic acid pH 6.5, 150 mM KCl, 23 C, 150 or 200 nM RNA, 5-fold excess BSA or HCV peptide; pull-down: 5 uM probe annealed in the same buffer, room temperature, RIPA lysate and washes; native PAGE 20%, RNA:peptide 1:1 to 1:3
Settings: protein: recombinant, G quadruplex

Chain of full-length FUS wild type (P35637 whole entry): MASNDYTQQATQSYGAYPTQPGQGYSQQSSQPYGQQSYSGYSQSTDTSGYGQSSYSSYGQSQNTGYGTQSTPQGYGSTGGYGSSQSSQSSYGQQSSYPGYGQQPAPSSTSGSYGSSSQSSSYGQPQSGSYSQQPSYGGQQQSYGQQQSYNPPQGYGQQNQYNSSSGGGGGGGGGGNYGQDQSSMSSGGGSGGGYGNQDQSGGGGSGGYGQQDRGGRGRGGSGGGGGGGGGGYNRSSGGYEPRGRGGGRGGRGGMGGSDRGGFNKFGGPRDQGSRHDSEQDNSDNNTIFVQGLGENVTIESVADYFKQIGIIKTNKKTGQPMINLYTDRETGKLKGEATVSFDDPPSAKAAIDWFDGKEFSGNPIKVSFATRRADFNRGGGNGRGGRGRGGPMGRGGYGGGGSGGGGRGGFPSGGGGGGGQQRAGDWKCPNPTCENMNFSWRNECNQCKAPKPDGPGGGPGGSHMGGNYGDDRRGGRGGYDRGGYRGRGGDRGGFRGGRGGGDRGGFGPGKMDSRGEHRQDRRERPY

Question: How did the Kd (label: 2-AP at position 4) turn out when GGGAGGGAGGGUGGG (structured_RNA, A4 replaced by 2-aminopurine) [PSD-95 GQ2 2-AP] was run?
Answer: 28 ± 10 nM

Question: For GGGGUUGGGGAGGGUGUAGGGGGUGGGG (structured_RNA, A18 replaced by 2-aminopurine) [Shank1a GQ 2-AP], which Kd (label: 2-AP at position 18) is on record?
Answer: 88 ± 27 nM

— article PMC7018707, “FUS Recognizes G Quadruplex Structures Within Neuronal mRNAs”
